Assay: label from the status in PepcDB records

| Sequence | protein production |
| --- | --- |
| MELPAVGEHVFAVESIEKKRIRKGRVEYLVKWRGWSPKYNTWEPEENILDPRLLIAFQNRERQEQLMGYRKRGPKPKPLVVQVPTFARRSNVLTGLQDSSTDNRAKLDLGAQGKGQGHQYELNSKKHHQYQPHSKERAGKPPPPGKSGKYYYQLNSKKHHPYQPDPKMYDLQYQGGHKEAPSPTCPDLGAKSHPPDKWAQGAGAKGYLGAVKPLAGAAGAPGKGSEKGPPNGMMPAPKEAVTGNGIGGKMKIVKNKNKNGRIVIVMSKYMENGMQAVKIKSGEVAEGEARSPSHKKRAADERHPPADRTFKKAAGAEEKKVEAPPKRREEEVSGVSDPQPQDAGSRKLSPTKEAFGEQPLQLTTKPDLLAWDPARNTHPPSHHPHPHPHHHHHHHHHHHHAVGLNLSHVRKRCLSETHGEREPCKKRLTARSISTPTCLGGSPAAERPADLPPAAALPQPEVILLDSDLDEPIDLRCVKTRSEAGEPPSSLQVKPETPASAAVAVAAAAAPTTTAEKPPAEAQDEPAESLSEFKPFFGNIIITDVTANCLTVTFKEYVTV | failed |
| MGKKKNKKTEVQQPDPMRKNWIMENMDSGVIYLLESWLKAKSQETGKEISDIFANAVEFNIVLKDWGKEKLEETNTEYQNQQRKLRKTYIEYYDREMK | not failed |
| MSMELFEVHEGKAKVLVPKAKTIYDSPVFYNPRMAPNRDVVVLLLNVLKPKIVLDALSATGIRGIRFALETPAEEIWMNDINELAYELMKKNVLLNFKGTLKENAKRAIFEGEKTIVINNDDANRLMAEKHRYFHFIDLDPFGSPMEFLDTALRSVKRKGILGVTATDGAPLCGAHPKACLRKYLAVPLRGELCHEVGTRILVGVIARYAAKYDLGMEVLLAYYKDHYFRAFVKLKDGAKKGDETLENLGYVYFDEKTGRFEVEKSFLSTRPNAYGPLWLGPLKNEKVVGEMLELLVSGFEVANYREVLKLLHMLHEELDIPLFYDTHALGKRLKIEPKKLGEIIKELKSMGYEATRTHFSPTGIKTNAPYEVFVEVMRKN | failed |
| PREPVVNDEMCDVCEVWTAESLFPCRVCTRVFHDGCLRRMGYIQGDSAAEVTEMAHTETGWSCHYCDNINLLLTEE | not failed |
| MMKNKKVEANLSMVVSKTFSGLNMNALKYLLPVWVSPLSGVTLRCVFAAIAFWIIGMFVKPEISTRKEKIFLFLLGALGIYGFMFLYLMGLSKTTPVSSSIFTSLQPIWVFVIAVVFFKEKISAMKIAGISLGLGGAILCILAQKSDDLASDALTGNMLCLLSSIAYAVYLVASNRILKSVGMFTVLKYTFAGAAFSSIVVSAVTGFHAPVFSGPLHWFPLSVLLFVLIFPTVVSYLLVPIGLKYLKTTVVAIYGYLILIVATIVSLLVGQDRFSWSQTIAIGMICVSVYLVEVAETKEKPVSNSDKPSSLPPHGS | failed |
| MAQFAVIGLGSFGATVATELTKLNHDVIGIDSVKRNVEDLSDQLTHAVIADASDEHVLEELNIQNCETVVVAIGEDIEASILCVLHLKNMGVPQIWVKAKTKAHHMILSHLHVDKIIHPEEDMGVRIAQALNYPMVSRYMALDNDHFIVKVEIPKHLNGVHLLGLINEMSDVKTILLKRGKDIIYEPDPTCPVQSKDILILEGHIDQLKKLSRRFLPHEKTKN | failed |
| MEPSSLVLALEQTSEVLGKEPIVPFAILLVVLLVVPILFERLRLPGIVGLVLSGLVLGPSGWNLFHTKSPMISLLSDIGLVYLMFVAGLEVDLELWRRRQRRALGFGCVSFTIPLLIGTLVGRFFHFGWNTSVLIGSLLTSYSLLAYPIINRLGVISNQAVTITIGATVFTDISALIVLAICIPAFQMGMSNIYQILSLLGWLIIYSIVILVGFDWAGREFFRRSGDDEGNKFLFVLLTVFLAVVVAQLIGIEKILGAFLAGLAVNEAVGEGPVKEKIVFVGSVLFIPIFFINLGLLIDLPGLVNSLFTLQLTSLIVISLVASKFIAAWLAKVFYGYSWQEMLTMWSLSIPQVGTTLAATFVGYHTGLLSSAVLTSVVILMLITATLGPLITSRTARALTTVSITESVDANLPEPQVIETQNGNFTIVVPIYNPHTQQYLVEMAALLAHQAQGRIIPLTIATAAAHMDAPQLESTLQRSERLLAKATSQSQALGVAASPLLRIDDASAPGISRAAREQKANLIVMGWGKRTGLRARLFGNVIDNVLWSSHCPVAVTRLVESPKKIQRILVPVENLITPTLQPVQFAQMLAEANQAQVTVLNVCDRRTSSSKIASRRSQLALLVSKLALPNSPEVQIIAHENAAQAILQAARLYDLVVLPFIRNRTSPGGLALSDVTTQLASQLTCSIVMLGEPQRLQTGNITSVAPNTTTAV | failed |
| MKQLTILGSTGSIGNSTLSVVRANPELFKVTALVAGRNVREMAQQCLEFSPRYAAMSDEHSAKSLRLLLAEQGSDTEVYSGETAACELAALDDVDQVMAAIVGIAGLPSTLAAIRAGKQVLLANKESLITCGKLFMDEVKRSRAQLLPIDSEHNAIFQSLPERIQRQLGYSSLNENGVSRIILTGSGGPFRETPLSQFSDVTPDQACAHPNWSMGRKISVDSATMMNKGLEYIEARWLFNASAEQIEVVLHPQSVIHSMVRYHDGSILAQMGTPDMRTPIAHAMAYPMRVSSGVAPLDFCKVGALTFTTPDYQRYPCLKLAIDACNAGQAATTALNAANEISVMAFLDSKIRFTDIEVINRTVVEGLLLSEPTSVEEVLVIDRKARDVAAQVIAKLNN | not failed |
| SLGEMKRAAIIIDDFGGDVKGVDDFLTGEIPVTVAVMPFLEHSTKQAEIAQAAGLEVIVHMPLEPKKGKISWLGPSGITSNLSVGEVKSRVRKAFDDIPYAVGLNNHMGSKIVENEKIMRAILEVVKEKNAFIIDSGTSPHSLIPQLAEELEVPYATRSIFLDNTHSSRKEVIKNMRKLAKKAKQGSEPIGIGHVGVRGDETYAGIRSMLDEFQAESIQLVPVSQLLPSPIEEDHNKFWQQPFQAKE | not failed |
| MVQEEASCELAPREKKLSIRGAIVKLGNPGFPDASARSLPLNLERLRPGGGGCPQSGSQTLWCSSSLAECSHAEVTSSEGSPRTLGLRGESRDFPVISREGASKAGGGRSGRGQRLPRGSPAGLAGLWLLLLQIARLMARQRTVAGIGPGALLALRALLVAAHPQCLDFRPPFRPPQPLSFCAQYSAFGCCTAEQDAALARRFRALETRMDAGVWATCAGYALDLLCQECSPYAAHLYDAEDPATPLRTVPGLCEDYCLDMWQTCRGLFRHLSPDRELWALESNRAKLCRYLSLDDTDYCFPSLLVNENLNSNLGRVVADAKGCLQLCLEEVANGLRNPVAMVHAGDGSHRFFVAEQVGLVWTYLPDRSRLEKPFLNVSQAVLTSPWEGDERGFLGLAFHPRFPHPSKLYVYYSVGVGFREWIRISEFRISEDDENTVDHGSERIILEIEEPASNHNGGQLLFGDDGFLYIFTGDGGMAGDPFGKFGNAQNKSALLGKVLRIDVDRKERGLPYGIPLDNPFVDDPEARPEVYALGVRNMWRCSFDRGDPVSGTHRGRLFCGDVGQNKYEEVDLVERGRNYGWRAREGFECYDRKLCANASLDDVLPIFAYPHKLGKSVTGGYVYRGCEYPNLNGLYIFGDFMSGRLMSLRENPESGQWKYSEVCMGRGQTCAFPGLINNYYPYIISFAEDEAGELYFMSTGVPSATAARGVIYKVTDPSRRAPPGKCKIRPAQVKVKSHLIPFVPKEKFIRTSESTPRPTARAPTKAPRRRRPTAAPPAPTLRPTKPARPTRRPGARKGGGRRRGRPGTAVPEPQNGSVRLVRPSGLSPGRGRVEVFIGGRWGTVCDDGWDIKAAAVVCRQLGFAHAVRAAKRAEFGEGRALRILLDDVRCAGSERNLLECAHAGVGTHNCKHEEDAGVECSHEDPDL | failed |
| MSLSDLLYEIQDKVGLLTMNRISKHNAFDNQLLTEMRIRLDSAINDTNVRVIVLKANGKHFSAGADLTWMQSMANFTEEENLEDSLVLGNLMYSISQSPKPTIAMVQGAAFGGGAGLAAACDIAIASTSARFCFSEVKLGLIPAVISPYVVRAIGERAAKMLFMSAEVFDATRAYSLNLVQHCVPDDTLLEFTLKYASQISNNAPEAVKNSKQLAQYVANKKIDEELVRYTASLIAHKRVSDEGQEGLKAFLNKEIPNWNEGHHHHHH | not failed |
| MEPRVGNKFRLGRKIGGGSFGEIYLGTNIQTNEEVAIKLENVKTKHPQLLYESKLYKVLQGGTGVPNVKWYGVEGDYNVLVIDLLGPSLEDLFNFCSRKLSLKTVLMLADQMINRIEFVHQKSFLHRDIKPDNFLMGLGRRANQVYVIDFGLAKKYRDSNHQHIPYRENKNLTGTARYASMNTHLGIEQSRRDDLESLGFVLMYFLKGSLPWQGLKAGNKKQKYEKISEKKVSTSIEALCRGYPSEFASYFHYCRSLRFDDKPDYAYLKRLFRDLFIREGFQFDYVFDWTILKYQQSQISTPPPRHHGPVVGPSSALPPAITSAERPSGGDEARPSGWSSGIPRRNSGQIFNSGSLAKQKAPVSSDPAISKDVVLSSSSFLRATGSSRRAAVSSSREAAVLGTDSEPSNPQIVEAGSGSNSKIPVSRNSPIVSSEINKLSSPSRATTSVMKNYEANLKGIESLHF | not failed |
| MIKTSPPMNKLKLNIALSAFFFALVGCQSMPNDPVDIKADLDASIKETKRLNGPKALTQVPNSVQQELMLNNMDQAKQGMLAEKRLEVSATEVDAKDFFQAIVRGSRYNVVIHPDVTGQISLSLNNVTLSEALTVVEDVYGYEIIRRGNVVKVFPPGIRTETIALNYLFLKRFGSSSTTINSGGVSENDPNSGNSSNGNSSNSNNSNSGSNNNQSGNNGSSNQNSGINLYTENESNFWDELKESLTAFVGTGEGRSVIVSPQAGLVTVRALPQELTAVKKFITATESHLHRQVIIEAKIMEVTLNDDFQQGIKWNKVLDQVGSADIIYSTTGNVVGNVISNTIGGVNSINFSKQTSGSDFSGVIELLQTQGNVQVLSSPRITATNNQKAVIKVGEDEYFVTEVSSTTTTGTSTTTTPEVELTPFFSGIALDVTPQISKDGSVILHVHPSVTITEEQSKTIKIGDTTLVLPLAQSSVRESDTIIRANSGEVVVIGGLIETYNIDIESKTPILGDIPYLGELFKNKSQKSQKRELVIMLKPIVVGQDTWKNQLQDARSLLTKWFPEEVDACELSNDGTLTQECQAQCADAEYATEHGVCQMAAQNAASNDN | failed |
| MTGLSQSQASPMQIQPGNAAFNPWTDAALDTIRDVNQALTLYAEMRVVPAHHDAFLAAIDTVSAKLRVLPGFLSLALKQMSGDSTMVKNYPETYKGVLATAYLDGVAAGTQPYFYNLFVRFADGRAARAAGFEALFETHIHPLLHAMAPRGGDGPELLAYRAVLQSVVAGDRHAIYRGAEEIRSFLRRPVELPERETVTVENHVMVPEDKHAAWEPQVAILLQVAQDTFEPQDEPSGVGLPGARDNRYYRKALSTEILRNAHADGGLRAYIMHGVWESVWDHENSHLDPRFLAAAGPVGAAAVVGPVEPFYLTRRLVVAD | not failed |
| MSWESINSKDLLSIPPSQNLSATRLLTSPDGSRYLLENSSDLCHLDESFSRLAGYGSSPDVGSRSVWASQALLRSGSVISCFLSCQQSLRQYIAKRKIERGRRLYEQNNQTEAVRTWRSALKGTCQREDCFQLLGYLYQAHMDWGKFREAIEFSHQQLGISEELDSPNMRAETYLNLSRAHASLGGLERSLSYARHSLYNECGTKCRSGLVHLTVARVYLEMGGFSRALEGLQGAYKIATAIGDPSLELQVYVALSELFGRLQDNDKSATYASKAYDLSRSLQLGDLNSCHHRAALLRMAVSLRKQGELGDAQDYCKEATKLSLISGDQATYTRSIRVMGDIYRNKMDMDRAFRQYEQAMGTSASLGDRMAQMEAMDGAARCLETLRLQNKICNCRPLEFNTRLLEVASSIGAKFLVRKIRCRLALIYRALGDEDQYNTHFRLANQTDAALGLNCGACGELLGLRPENLEALPCAHILHARCAYEILRRREKNAPRSCPACNKLISSRTHFCGSVPVESESTDRCVTAASTFNTNSLSVDGLLGINSDILLPSAAFCYVKNPALDTENSALLSPKVIYHSNLSLASLSMRASSLTIDSGQNVTSSV | failed |
